T1: Recombinant cynomolgus monkey sgM-CSF (cynomolgus (Macaca fascicularis), UniProt P09603 33-255 (human entry), limits assumed)
T1 construct: used also where only 'cynomolgus M-CSF' is printed (ELISA result, SET); also called cynomolgus sgM-CSF; cyno sgM-CSF
T1 chain: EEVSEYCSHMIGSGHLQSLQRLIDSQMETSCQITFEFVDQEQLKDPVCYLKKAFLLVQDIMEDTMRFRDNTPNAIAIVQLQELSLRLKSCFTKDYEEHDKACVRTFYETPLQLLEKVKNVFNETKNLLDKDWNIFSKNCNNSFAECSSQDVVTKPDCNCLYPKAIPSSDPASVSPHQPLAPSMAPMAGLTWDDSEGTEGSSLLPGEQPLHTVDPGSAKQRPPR

T2: human M-CSF (human, UniProt P09603 33-255, limits assumed)
T2 construct: also called M-CSF (human); CSF-1
T2 sequence: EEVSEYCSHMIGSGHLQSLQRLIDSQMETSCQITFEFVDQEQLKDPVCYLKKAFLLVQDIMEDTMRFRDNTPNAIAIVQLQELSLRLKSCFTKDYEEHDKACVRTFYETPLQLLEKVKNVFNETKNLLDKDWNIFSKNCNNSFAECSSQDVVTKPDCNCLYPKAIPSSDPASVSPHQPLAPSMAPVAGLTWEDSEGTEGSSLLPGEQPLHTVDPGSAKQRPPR

T3: Recombinant human sgM-CSF (human, UniProt P09603 33-255)
T3 construct: also called human secreted glycosylated M-CSF; Human M-CSF
T3 sequence: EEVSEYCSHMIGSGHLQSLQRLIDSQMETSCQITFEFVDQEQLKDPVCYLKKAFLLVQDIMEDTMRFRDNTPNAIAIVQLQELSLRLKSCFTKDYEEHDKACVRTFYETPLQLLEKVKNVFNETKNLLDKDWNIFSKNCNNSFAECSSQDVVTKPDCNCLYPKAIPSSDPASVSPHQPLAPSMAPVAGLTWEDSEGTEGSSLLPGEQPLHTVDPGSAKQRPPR


Experiments:
[1] = molecular target: T1, Recombinant cynomolgus monkey sgM-CSF; test: soluble equilibrium titration (SET), Fab, monovalent
Description: (§1) The monovalent affinity of the antibodies of the present disclosure was determined by soluble equilibrium titration (Haenel et al. (2005) Anal Biochem 339, 182-4).

human M-CSF [2] = molecular target: T2, human M-CSF; test: as above
Description: as §1

[3] = molecular target: T3, Recombinant human sgM-CSF; test: Receptor binding assay, inhibition of human M-CSF binding to M-CSF receptor (competitor CSF1-R-Fc); Table 12 summary
[4] = molecular target: T3, Recombinant human sgM-CSF; test: Table 12 summary, criterion Binding, Human M-CSF; assay and antibody format not named there
Description: as §1

[5] = molecular target: T1, Recombinant cynomolgus monkey sgM-CSF; test: Receptor binding assay, inhibition of cynomolgus M-CSF binding to M-CSF receptor (competitor CSF1-R-Fc); Table 12 summary
Description: Complexes were then transferred to 384 well MSD plates coated with 2 μg/ml of the corresponding receptor. Plates were then washed and incubated with the streptavidin/ECL conjugate for 2 h with shaking at room temperature. 35 μl MSD read buffer T with surfactant was then added per well and subsequently measured using MSD Sector Imager 6000.

[6] = molecular target: T1, Recombinant cynomolgus monkey sgM-CSF; test: cell-based or functional assay
[7] = molecular target: T3, Recombinant human sgM-CSF; test: cell-based or functional assay
GM-CSF = GM-CSF (Homo sapiens (Human), UniProt P04141 18-144); test: not described (Table 12, criterion Binding)
[8] = molecular target: T1, Recombinant cynomolgus monkey sgM-CSF; test: ELISA
Description: (§2) BSA was used as a negative control substrate.
(§3) After blocking of plates with 5% skim milk powder in PBS, Fab-containing E. coli lysates, IgG-containing cell culture supernatants or purified IgG or Fab proteins were added. Binding of Fabs or IgGs was detected by F(ab)₂ specific goat anti-human IgG conjugated to alkaline phosphatase (Dianova Cat# 109-055-097; diluted 1:5000) using Attophos fluorescence substrate (Roche, #11681982001). Fluorescence emission at 535 nm was recorded with excitation at 430 nm.

human M-CSF [9] = molecular target: T2, human M-CSF; test: ELISA
Description: as §2, §3

Chain of GM-CSF (P04141 18-144 limits assumed): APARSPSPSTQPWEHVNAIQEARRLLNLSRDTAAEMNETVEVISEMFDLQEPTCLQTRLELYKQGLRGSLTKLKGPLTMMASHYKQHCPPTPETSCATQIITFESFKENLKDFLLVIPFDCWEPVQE

Row | Kd [1] | Kd (human M-CSF [2]) | Binder | other results
1 | 0.13 nM | 0.096 nM | Blanche, Fab (Fab, V domains shown) VH: QVQLQQSGPGLVKPSQTLSLTCAISGDSVSSNSAAWNWIRQSPSRGLEWLGRTYYRSKWKHEYAMSVKSRITINPDTSKNQFSLQLNSVTPEDTAVYYCARDRYYYSAFDYWGQGTLVTVSS VL: DIALTQPASVSGSPGQSITISCTGTSSDVGGYNSVSWYQQHPGKAPKLMIYAVSNRPSGVSNRFSGSKSGNTASLTISGLQAEDEADYYCASYDERFTRVFGGGTKLTVLG | –
2 | 0.03 nM | 0.028 nM | Madeleine, Fab (Fab, V domains shown) VH: QVQLQQSGPGLVKPSQTLSLTCAISGDSVSSNSAAWNWIRQSPSRGLEWLGRTYYRSKWKKEYAQSVKSRITINPDTSKNQFSLQLNSVTPEDTAVYYCARDRYYYSAFDYWGQGTLVTVSS VL: QSALTQPASVSGSPGQSITISCTGTSSDVGGYNSVSWYQQHPGKAPKLMIYAVSNRPSGVSNRFSGSKSGNTASLTISGLQAEDEADYYCASYDERFTRVFGGGTKLTVLG | –
3 | 0.15 nM | 0.096 nM | Laurine, Fab (Fab, V domains shown) VH: QVQLQQSGPGLVKPSQTLSLTCAISGDSVSSNSAAWNWIRQSPSRGLEWLGRTYYRSKWKKEYAQSVKSRITINPDTSKNQFSLQLNSVTPEDTAVYYCARDRYYYSAFDYWGQGTLVTVSS VL: DIALTQPASVSGSPGQSITISCTGTSSDVGGYNSVSWYQQHPGKAPKLMIYAVSNRPSGVSNRFSGSKSGNTASLTISGLQAEDEADYYCASYDERFTRVFGGGTKLTVLG | –
4 | 0.013 nM | 0.011 nM | Meriem, Fab (Fab, V domains shown) VH: QVQLQQSGPGLVKPSQTLSLTCAISGDSVSTSSAAWNWIRQSPSRGLEWLGRTYYRSKWKKEYAQSVKSRITINPDTSKNQFSLQLNSVTPEDTAVYYCARDRYYYSAFDYWGQGTLVTVSS VL: QSALTQPASVSGSPGQSITISCTGTSSDVGGYNSVSWYQQHPGKAPKLIIYAVSNRPSGVSNRFSGSKSGNTASLTISGLQAEDEADYYCASYDERFTRVFGGGTKLTVLG | –
5 | 0.027 nM | 0.013 nM | Maelle, Fab (Fab, V domains shown) VH: QVQLQQSGPGLVKPSQTLSLTCAISGESVSTSSAAWNWIRQSPSRGLEWLGRTYYRSKWKKEYAQSVKSRITINPDTSKNQFSLQLNSVTPEDTAVYYCARDRYYYSAFDYWGQGTLVTVSS VL: QSALTQPASVSGSPGQSITISCTGTSSDVGGYNSVSWYQQHPGKAPKLIIYAVSNRPSGVSNRFSGSKSGNTASLTISGLQAEDEADYYCASYDERFTRVFGGGTKLTVLG | –
6 | 0.025 nM | 0.018 nM | Camille, Fab (Fab, V domains shown) VH: QVQLQQSGPGLVKPSQTLSLTCAISGESVSTSSAAWNWIRQSPSRGLEWLGRTYYRSKWKHEYAVSVKSRITINPDTSKNQFSLQLNSVTPEDTAVYYCARDRYYYSAFDYWGQGTLVTVSS VL: QSALTQPASVSGSPGQSITISCTGTSSDVGGYNSVSWYQQHPGKAPKLLIYAVSNRPSGVSNRFSGSKSGNTASLTISGLQAEDEADYYCASYDERFTRVFGGGTKLTVLG | –
7 | 0.016 nM | 0.014 nM | Caline, Fab (Fab, V domains shown) VH: QVQLQQSGPGLVKPSQTLSLTCAISGDSVSSNSAAWNWIRQSPSRGLEWLGRTYYRSKWKHEYAMSVKSRITINPDTSKNQFSLQLNSVTPEDTAVYYCARDRYYYSAFDYWGQGTLVTVSS VL: QSALTQPASVSGSPGQSITISCTGTSSDVGGYNSVSWYQQHPGKAPKLMIYAVSNRPSGVSNRFSGSKSGNTASLTISGLQAEDEADYYCASYDERFTRVFGGGTKLTVLG | –
8 | – | – | HeRX1-10G1 (format not stated) (antibody, V domains shown, Prior art antibody) VH: QVQLQESGPGLVKPSQTLSLTCTVSDYSITSDYAWNWIRQFPGKGLEWMGYISYSGSTSYNPSLKSRITISRDTSKNQFSLQLNSVTAADTAVYYCASFDYAHAMDYWGQGTTVTVSS VL: DIVLTQSPAFLSVTPGEKVTFTCQASQSIGTSIHWYQQKTDQAPKLLIKYASESISGIPSRFSGSGSGTDFTLTISSVEAEDAADYYCQQINSWPTTFGGGTKLEIKR | IC50 [3]: 0.027 nM; Kd [4]: > 1 nM; IC50 [5]: 0.028 nM; Cell viability assay (IC50), Cynomolgus M-CSF [6]: 0.004 nM; Cell viability assay (IC50), Human M-CSF [7]: 0.004 nM; binding result (GM-CSF): no binding; ELISA fluorescence units [8]: > 35000 units; ELISA fluorescence units (human M-CSF [9]): > 35000 units
9 | 0.007 nM | 0.013 nM | Romaine, Fab (Fab, V domains shown) VH: EVQLVESGGGLVKPGGSLRLSCAASGFTFSIYAMSWVRQAPGKGLEWVGRIKSNADGGTTEYAAPVKGRFTISRDDSKNTLYLQMNSLKTEDTAVYYCARMRYYSDLYFDPWGQGTLVTVSS VL: DIELTQPPSVSVSPGQTASITCSGDAIGSKYVHWYQQKPGQAPVLVISKDNKRPSGIPERFSGSNSGNTATLTISGTQAEDEADYYCQTATVSSYWWVFGGGTKLTVLG | –
10 | – | – | 8.10.3F (format not stated) (antibody, V domains shown, Prior art antibody; also called 8.10.F3) VH: EVQLVESGGGLVQPGGSLRLSCAASGFTFSSFSMTWVRQAPGKGLEWVSYISSRSSTISYADSVKGRFTISRDNAKNSLYLQMNSLRDEDTAVYYCARDPLLAGATFFDYWGQGTLVTVSS VL: not shown | IC50 [3]: 0.031 nM; Kd [4]: 0.038 nM; IC50 [5]: 0.021 nM; Cell viability assay (IC50), Cynomolgus M-CSF [6]: 0.085 nM; Cell viability assay (IC50), Human M-CSF [7]: 0.071 nM; binding result (GM-CSF): no binding; ELISA fluorescence units [8]: > 35000 units; ELISA fluorescence units (human M-CSF [9]): > 35000 units
